The text below walks through data of article PMC10729762, “CsrA selectively modulates sRNA-mRNA regulator outcomes”.

In series [1] the target is T1, CsrA (UniProt P69913 1-61). Nature of the series: EMSA; up to 6 uM CsrA; 10 nM denatured RNA, 0-6 uM CsrA, 0-3 uM Hfq; 1X binding buffer (10 mM Tris-HCl pH 7.5, 10 mM MgCl2, 100 mM KCl) plus CsrA dilution buffer, 11% glycerol, 20 mM. The note with it: protein: recombinant; chain copies: 2; label: internal 32P-UTP. In general terms: Mobility shift assays separate free from complexed probe on a gel.
T1 sequence (P69913 whole entry): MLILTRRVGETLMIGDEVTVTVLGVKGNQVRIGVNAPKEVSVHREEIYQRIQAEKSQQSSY

Series [2] concerns the target T1, CsrA. In words: EMSA; 3 or 6 uM CsrA; 10 nM denatured RNA, 0-6 uM CsrA, 0-3 uM Hfq; 1X binding buffer (10 mM Tris-HCl pH 7.5, 10 mM MgCl2, 100 mM KCl) plus CsrA dilution buffer, 11% glycerol, 20 mM. Conditions: protein: recombinant, chain copies: 2.
For series [3], the target named is T1, CsrA. Nature of the series: EMSA; 6 uM CsrA; 10 nM denatured RNA, 0-6 uM CsrA, 0-3 uM Hfq; 1X binding buffer (10 mM Tris-HCl pH 7.5, 10 mM MgCl2, 100 mM KCl) plus CsrA dilution buffer, 11% glycerol, 20 mM. The note with it: protein: recombinant; chain copies: 2; label: internal 32P-UTP.

B1: SibC (structured_RNA)
RNA: GUAAGGGUAAGGGAGGAUUGCUCCUCCCCUGAGACUGACUGUUAAUAAGCGCUGAAACUUAUGAGUAACAGUACAAUCAGUAUGAUGACAAGUCGCAUCAUAACCCUUCUCCUUCAAGCCCUCGCUUCGGUGAGGGCUUU
Consider B1, for which, in the series with CsrA [1], the binding result was “no binding”.

B2: SibA (structured_RNA)
RNA: GUGAGGGUUAGGGAGAGGUUUCCCCCUCCCCCUGGUGUUCUUAGUAAGCCUGGAAGCUAAUCACUAAGAGUAUCACCAGUAUGAUGACGUGCUUCAUCAUAACCCUUUCCUUAUUAAAAGCCCUCUUCUCCGGGAGAGGCUUU
Take B2: the binding result with CsrA [2] (label: internal 32P-UTP) is given as “binds”.

B3: McaS (structured_RNA)
RNA: ACCGGCGCAGAGGAGACAAUGCCGGAUUUAAGACGCGGAUGCACUGCUGUGUGUACUGUAGAGUCUGGCGGAUGUCGACAGACUCUAUUUUUU
B3: in the series with CsrA [2] (label: internal 32P-UTP), the binding result is “binds”.

B4: SibD (structured_RNA)
RNA: ACAAGGGUGAGGGAGGAUUUCUCCCCCCUCUGAUUGGCUGUUAAUAAGCUGCGAAACUUACGAGUAACAACACAAUCAGUAUGAUGACGAGCUUCAUCAUAACCCUUUCCUUCUGUAAGGCCCCCUUCUUCGGGAGGGGCUUU
In the case of B4, the binding result in the series with CsrA [3] is listed as “binds”.

B5: GadY (structured_RNA)
RNA: ACUGAGAGCACAAAGUUUCCCGUGCCAACAGGGAGUGUUAUAACGGUUUAUUAGUCUGGAGACGGCAGACUAUCCUCUUCCCGGUCCCCUAUGCCGGGUUUUUUU
For B5, the binding result with CsrA [2] (label: internal 32P-UTP) is “binds”.

B6: MicL-S (structured_RNA)
RNA: AUUUUUACCGUUGCAUCAUGUCGCCCAAUAUGAUGCUUGCUCGUACCAGGCCCCUGCAAUUUCAACAGGGGCCUUUUUUU
As for B6, the binding result in the series with CsrA [3] was “binds”.

B7: DsrA (structured_RNA)
RNA: AACACAUCAGAUUUCCUGGUGUAACGAAUUUUUUAAGUGCUUCUUGCUUAAGCAAGUUUCAUCCCGACCCCCUCAGGGUCGGGAUUU
Take B7: the binding result with CsrA [2] (label: internal 32P-UTP) is “binds”.

B8: GcvB (structured_RNA)
RNA: ACUUCCUGAGCCGGAACGAAAAGUUUUAUCGGAAUGCGUGUUCUGGUGAACUUUUGGCUUACGGUUGUGAUGUUGUGUUGUUGUGUUUGCAAUUGGUCUGCGAUUCAGACCAUGGUAGCAAAGCUACCUUUUUUCACUUCCUGUACAUUUACCCUGUCUGUCCAUAGUGAUUAAUGUAGCACCGCCUAAUUGCGGUGCUUUUUUUU
B8: the binding result with CsrA [1] was “no binding”.

B9: SgrS (structured_RNA)
RNA: GAUGAAGCAAGGGGGUGCCCCAUGCGUCAGUUUUAUCAGCACUAUUUUACCGCGACAGCGAAGUUGUGCUGGUUGCGUUGGUUAAGCGUCCCACAACGAUUAACCAUGCUUGAAGGACUGAUGCAGUGGGAUGACCGCAAUUCUGAAAGUUGACUUGCCUGCAUCAUGUGUGACUGAGUAUUGGUGUAAAAUCACCCGCCAGCAGAUUAUACCUGCUGGUUUUUUUU
As to B9, in the series with CsrA [2] (label: internal 32P-UTP), the binding result is recorded as “binds”.

B10: ChiX (structured_RNA)
RNA: ACACCGUCGCUUAAAGUGACGGCAUAAUAAUAAAAAAAUGAAAUUCCUCUUUGACGGGCCAAUAGCGAUAUUGGCCAUUUUUUU
On to B10, for which the binding result with CsrA [2] (label: internal 32P-UTP) is recorded as “binds”.

B11: GlmZ (structured_RNA)
RNA: GUAGAUGCUCAUUCCAUCUCUUAUGUUCGCCUUAGUGCCUCAUAAACUCCGGAAUGACGCAGAGCCGUUUACGGUGCUUAUCGUCCACUGACAGAUGUCGCUUAUGCCUCAUCAGACACCAUGGACACAACGUUGAGUGAAGCACCCACUUGUUGUCAUACAGACCUGUUUUAACGCCUGCUCCGUAAUAAGAGCAGGCGUUUUUUU
For the molecule B11, the binding result in the series with CsrA [3] was “binds”.

B12: Spot 42 (spf) (structured_RNA)
RNA: GUAGGGUACAGAGGUAAGAUGUUCUAUCUUUCAGACCUUUUACUUCACGUAAUCGGAUUUGGCUGAAUAUUUUAGCCGCCCCAGUCAGUAAUGACUGGGGCGUUUUUUA
Consider B12, for which the binding result with CsrA [2] (label: internal 32P-UTP (EMSA)) is “binds”.
